Experimental data reported in US12098206B2, “PDGF receptor antibody and use thereof” (Seoul National University R&DB Foundation, priority 2018, dated 2024).
Entries after “also recorded” stand apart in the source; their conditions may differ.

T1: mPDGFR-β (Mus musculus, UniProt P05622)
T1 construct: mPDGFR-β
T1 sequence (P05622 32-530): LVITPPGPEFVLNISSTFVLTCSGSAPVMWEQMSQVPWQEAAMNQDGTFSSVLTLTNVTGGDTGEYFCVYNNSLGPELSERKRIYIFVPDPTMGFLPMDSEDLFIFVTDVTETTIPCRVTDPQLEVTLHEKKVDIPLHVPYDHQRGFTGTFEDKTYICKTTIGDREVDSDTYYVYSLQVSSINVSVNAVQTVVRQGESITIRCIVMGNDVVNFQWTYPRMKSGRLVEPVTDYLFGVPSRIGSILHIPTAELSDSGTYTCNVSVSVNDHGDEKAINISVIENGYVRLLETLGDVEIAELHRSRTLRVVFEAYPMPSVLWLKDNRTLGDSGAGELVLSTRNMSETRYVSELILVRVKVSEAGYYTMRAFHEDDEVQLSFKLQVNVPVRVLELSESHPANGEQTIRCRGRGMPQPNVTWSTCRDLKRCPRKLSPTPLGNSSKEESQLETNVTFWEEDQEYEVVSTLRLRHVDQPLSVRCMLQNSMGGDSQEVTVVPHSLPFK

B1: PRb-CN16: anti-hPDGFR-β scFv clone (VH SEQ ID NO 39, VL SEQ ID NO 40), tested as scFv-Cκ-anti-cotinine scFv bispecific antibody (antibody, V domains shown)
VH: AVTLDESGGGLQTPGTALSLVCKASGFTFSSFNMAWVRQAPGKGLEFVGEISNTAGSTFYAPAVKGRATISRDNGQSTVRLQLNNLRAEDTAIYYCAKAAGTCYSHSCTGYIDAWGHGTEVIVSSTS
VL: LTQPSSVSANPGETVKITCSGSSSSYGWYQQKSPGSAPVTLIYENNQRPSNIPSRFSGSKSGSTGTLTITGVQAEDEAVYYCGNADRSNSAGTFGAGTTLTVL
modifications: VH of PRb-CN16; VL of PRb-CN16
B2: PRb-CN26: anti-hPDGFR-β scFv clone (VH SEQ ID NO 55, VL SEQ ID NO 56), tested as scFv-Cκ-anti-cotinine scFv bispecific antibody (antibody, V domains shown)
VH: AVTLDESGGGLQTPGGGLSLVCKASGFTFSDRGIHWVRQAPGKGLEWVAGIGNTGSYTAYAPAVKGRATISRDNGQSTVRLQLNNLRAEDTATYYCAKRGFMDAGGIDAWGHGTEVIVSSTS
VL: LTQPSSVSANPGETVKITCSGGGSYAGSYYYGWYQQKSPGSAPVTVIYDNTNRPSNIPSRFSGSLSGSTDTLTITGVQAEDEAVYFCGGYDGISDTGIFGAGTTLTVL
modifications: VH of PRb-CN26; VL of PRb-CN26
B3: PRb-CN01: anti-mPDGFR-β chicken scFv clone (VH SEQ ID NO 7, VL SEQ ID NO 8), tested as scFv-Cκ-anti-cotinine scFv bispecific antibody (antibody, V domains shown)
VH: AVTLDESGGGLQTPGGALSLVCKASGFTFSDRAMHWVRQAPGKGLEWVGLITNTGGSTNYGAAVKGRATISRDNGQSTVRLQLNNLRAEDTGTYYCTRGVGSWAHGGRIDAWGHGTEVIVSS
VL: LTQPSSVSANPGETVKITCSGGSGSYGWFQQKSPGSAPVTVIYSNNQRPSDIPSRFSGSKSGSTNTLTITGVQAEDEAIYYCGTRDSSYVGIFGAGTTLTVL
modifications: VH of PRb-CN01; VL of PRb-CN01
B4: PRb-CN32: anti-hPDGFR-β scFv clone (VH SEQ ID NO 47, VL SEQ ID NO 48), tested as scFv-Cκ-anti-cotinine scFv bispecific antibody (antibody, V domains shown)
VH: AVTLDESGGGLQTPRGTLSLVCKASGFTFSSFNMFWVRQAPGKGLEFVAGISTTGRYTGYGSAVQGRGTISRDNGQSTVRLQLNNLRAEDTGTYYCAKSAGSTYSYWDSDAGLIDAWGHGTEVIVSSTS
VL: LTQPSSVSANLGETVKITCSGGSNAGSYYYGWYQQKSPGSAPVTVIYSNNQRPSDIPSRFSGSTSGSTSTLTITGVQVDDEAVYFCGSGDSSSIAAFGAGTTLTVL
modifications: VH of PRb-CN32; VL of PRb-CN32

How the values were obtained:
human pericyte cells [1] = experiment: Anti-proliferative (cytotoxicity) test in human pericyte cells, cellular ATP; format: cell-based; conditions: with or without hPDGF-BB; FIGS. 14a and 14b
Method: Human pericyte cells were added to 50 μL of DMEM supplemented with 10% FBS and 1% penicillin/streptomycin, placed in a 96-well plate (CLS3595, Corning) and incubated overnight in 5% CO2 at 37° C. incubator. In each well containing 50 μL of cells, 50 μL of 50 anti-hPDGFR-β x cotinine scFv-Cκ-scFv fusion protein (25.6 pM-2 μM) complexed with cot-duo was added and incubated for 72 hours in 5% CO2 and 37° C. incubator.
To evaluate the effect of hPDGF-BB on the toxicity of the complex of the bispecific antibody of scFv-Cκ-scFv and cot-duo, hPDGF-BB (2 nM) was added together with 50 μL of the bispecific antibody scFv-Cκ-scFv and cot-duo complex. The mixed complexes were added to 50 μL of cell-containing solution. The bispecific antibody anti-mCD154 x cotinine scFv-Cκ-scFv was used as a control. Other experimental methods were carried out in the same manner as in the protocol of the anti-mPDGFR-β x cotinine scFv-Cκ-scFv fusion protein in Example 7.
In order to evaluate the toxicity of the anti-hPDGFR-β x cotinine scFv-Cκ-scFv fusion protein and cot-duo complexes, the complex was treated in human pericyte cells with or without hPDGF-BB, and the cells were […] to measure the relative viability. The toxicity of the bispecific antibody of anti-hPDGFR-β x cotinine scFv-Cκ-scFv fusion protein and cot-duo complex was shown by IC50 (Table 8).

human pericyte cells [2] = experiment: Internalization analysis by confocal microscopy in human pericyte cells; format: cell-based
Method: Human pericyte cells were treated with the diluted bispecific antibody scFv-Cκ-scFv (10 μg/mL) in pericyte growth medium supplemented with 10% FBS, and internalized at 37° C. for 30 minutes. The analysis was performed in the same manner according to the protocol of the confocal microscope of the anti-mPDGFR-β x cotinine scFv-Cκ-scFv fusion protein of Example 4. After the addition of hPDGF-BB (50 ng/mL) to the bispecific antibody scFv-Cκ-scFv fusion protein, the confocal microscopy experiments were performed according to the same protocol.
The internalization of the bispecific antibody scFv-Cκ-scFv fusion protein was visualized. After treatment of human pericyte cells with the fusion protein, antibodies bound to the cell surface were removed. After cell fixation, the fusion protein was stained with FITC-anti human Cκ antibody (green). To visualize early endosomes, the cells were stained with anti-Rab5 antibody and Alexa Fluor 546-goat anti-rabbit antibody IgG (red). […] DNA was stained with DAPI (blue)(Scale bar, 10 μm). FIG. 13d was repeated with hPDGF-BB.
To measure the cellular internalization of the bispecific antibody of scFv-Cκ-scFv, anti-hPDGFR-β x cotinine scFv-Cκ-scFv fusion protein was incubated in human pericyte cells, and then treated with FITC-anti-human Cκ antibody and endosome-specific antibody. It was imaged using a confocal microscope. […] When the images were merged, the present inventors confirmed that the fluorescence of the two antibody clones and the endosome-specific antibody were co-localized. […] Internalization of the antibody is very important for delivery of drug into the target cell. […] Therefore, it is useful for intracellular delivery of drug to patients with diseases.

[3] = target: T2, NIH3T3 cells expressing mPDGFR-β (Mus musculus, UniProt P05622); experiment: Flow cytometry competition against PRb-CN01-rabbit Fc on NIH3T3 cells; format: binding; conditions: PRb-CN01-rabbit Fc 50 nM, competitor 1 μM, FIG. 19b
T2 construct: host or cells: NIH3T3
T2 sequence (P05622 32-1098): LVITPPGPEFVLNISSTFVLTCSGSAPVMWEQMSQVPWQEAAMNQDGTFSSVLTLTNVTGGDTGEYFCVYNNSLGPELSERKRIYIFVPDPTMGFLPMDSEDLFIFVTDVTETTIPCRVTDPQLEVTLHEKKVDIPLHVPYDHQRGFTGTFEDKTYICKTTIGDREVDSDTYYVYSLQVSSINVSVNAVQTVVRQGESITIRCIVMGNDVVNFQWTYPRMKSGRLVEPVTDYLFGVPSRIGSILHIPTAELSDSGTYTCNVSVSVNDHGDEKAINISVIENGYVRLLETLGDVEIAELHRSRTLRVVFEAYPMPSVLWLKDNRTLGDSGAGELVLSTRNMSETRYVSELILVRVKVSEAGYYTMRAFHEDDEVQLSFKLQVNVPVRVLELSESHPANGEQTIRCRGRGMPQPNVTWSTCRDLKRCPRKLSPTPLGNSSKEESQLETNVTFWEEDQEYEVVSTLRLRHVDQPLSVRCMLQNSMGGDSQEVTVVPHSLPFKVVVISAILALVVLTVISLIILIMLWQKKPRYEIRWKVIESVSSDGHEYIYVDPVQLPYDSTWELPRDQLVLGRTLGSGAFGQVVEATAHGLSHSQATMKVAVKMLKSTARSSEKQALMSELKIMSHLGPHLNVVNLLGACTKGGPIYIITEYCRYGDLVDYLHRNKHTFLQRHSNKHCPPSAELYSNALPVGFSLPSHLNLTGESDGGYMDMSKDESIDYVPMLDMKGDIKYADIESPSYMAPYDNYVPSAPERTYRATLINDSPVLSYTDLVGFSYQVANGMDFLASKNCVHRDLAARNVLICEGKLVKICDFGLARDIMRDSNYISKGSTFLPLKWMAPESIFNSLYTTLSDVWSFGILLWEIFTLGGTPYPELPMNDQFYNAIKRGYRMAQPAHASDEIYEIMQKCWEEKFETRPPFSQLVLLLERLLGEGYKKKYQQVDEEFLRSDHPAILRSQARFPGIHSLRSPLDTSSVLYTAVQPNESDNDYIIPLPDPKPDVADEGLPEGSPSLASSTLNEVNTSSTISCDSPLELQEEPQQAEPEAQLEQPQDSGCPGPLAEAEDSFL
Method: According to the same manner as in Example 5, PRb-CN01-rabbit Fc (50 nM) and PRb-CN01, control antibody, PRb-CN32 bispecific antibody scFv-Cκ-scFv (1 μM) were cultured on NIH3T3 cells for 1 hour. After washing, it was reacted with FITC-anti rabbit Fc antibody (172-1506, KPL, Gaithersburg, Maryland, USA) at 4° C. for 1 hour. After washing, it was classified and analyzed with a FACS Canto II instrument (BD Biosciences, San Jose, CA, USA). 10,000 cells were identified for each measurement. The results were analyzed by FlowJo (Tree Star, Ashland, OR, USA) (FIG. 19b).

mPDGFR-β = target: T1, mPDGFR-β; experiment: Competition enzyme immunoassay against PRb-CN01-rabbit Fc on mPDGFR-β-hFc; format: binding; conditions: competitor bispecific scFv-Cκ-scFv 100 nM; FIG. 19a
Method: It was carried out in substantially the same manner as the enzyme immunoassay method for antibody binding ability of Example 3, except that mPDGFR-β-hFc chimeric protein was coated with O/N on a microtiter plate at a temperature of 4° C. After incubating the blocking agent in each well, various concentrations of PRb-CN01-rabbit Fc (0.01 nM-1 μM) and PRb-CN01, control anti-HER2 antibody, and PRb-CN32 bispecific scFv-Cκ-scFv (100 nM) diluted in 3% BSA/PBS were reacted in each well at 37° C. for 2 hours. After washing the plate three times with PBST, the HRP-anti rabbit Fc antibody was reacted at 37° C. for 1 hour, and after washing, the reaction was performed using ABTS. Then, the absorbance was measured at 405 nm with a Multiscan Ascent microplate device (Labsystems, Helsinki, Finland) (FIG. 19A). FIG. 19a is the result of confirming the competition for the PRb-CN01 surrogate antibody.

[4] = 10 μg/mL, 37° C., 30 minutes, absence of hPDGF-BB, FIG. 13c
[5] = treated with hPDGF-BB (50 ng/mL), FIG. 13d

Molecule | toxicity of complex with cot-duo in human pericyte cells, comparison (human pericyte cells [1]) | cellular internalization (human pericyte cells [2]; [4]) | cellular internalization (human pericyte cells [2]; [5]) | inhibition of binding of PRb-CN01-rabbit Fc to mPDGFR-β on the cell surface [3] | inhibition of binding of PRb-CN01-rabbit Fc to mPDGFR-β-hFc chimeric protein (mPDGFR-β)
B1 | higher toxicity than control anti-mCD154 x cotinine scFv-Cκ-scFv | Intracellular fluorescence was detected | co-localized with endosome-specific antibody |  | 
B2 | higher toxicity than control anti-mCD154 x cotinine scFv-Cκ-scFv; also recorded: highest cytotoxicity | not internalized | co-localized with endosome-specific antibody; also recorded: internalized in a large amount within 30 minutes |  | 
B3 |  |  |  | inhibited | inhibited
B4 | higher toxicity than control anti-mCD154 x cotinine scFv-Cκ-scFv; also recorded: highest cytotoxicity | Intracellular fluorescence was detected; also recorded: internalizes most effectively | co-localized with endosome-specific antibody | inhibited | inhibited
